Reference: US20230399371A1, “IL-12 COMPOSITIONS AND METHODS OF USE THEREOF” (published 2023)

Biological target: IL-12Rβ1/IL-12Rβ2 receptor complex (human, UniProt P42701)
Assay: cell-based or functional assay

IFN-γ secretion by NK92MI cells (ELISA, 48 hrs): ~70 fold lower
B1: P36693671 (other)
chain 1: QVQLVQSGAEVKKPGASVKVSCKASGYTFTMNIIHWVRQAPGQGLEWMGWIHPGSGAIKYAQKLQGRVTMTTDTSTSTAYMELRSLRSDDTAVYYCARHGGTGRGAMDYWGQGTLVTVSSASTKGPSVFPLAPSSKSTSGGTAALGCLVKDYFPEPVTVSWNSGALTSGVHTFPAVLQSSGLYSLSSVVTVPSSSLGTQTYICNVNHKPSNTKVDKKVEPKSCDKGGGGSSGRSDNRGGGGSIWELKKDVYVVELDWYPDAPGEMVVLTCDTPEEDGITWTLDQSSEVLGSGKTLTIQVKEFGDAGQYTCHKGGEVLSHSLLLLHKKEDGIWSTDILKDQKEPKNKTFLRCEAKNYSGRFTCWWLTTISTDLTFSVKSSRGSSDPQGVTCGAATLSAERVRGDNKEYEYSVECQEDSAAPAAEESLPIEVMVDAVHKLKYENYTSSFFIRDIIKPDPPKNLQLKPLKNSRQVEVSWEYPDTWSTPHSYFSLTFSVQVQGQDQDEKKDRVFTDKTSATVICRKNASISVRAQDRYYSSSWSEWASVPCS
chain 2: EIVLTQSPGTLSLSPGERATLSCRASQSVSTSAYSYMHWYQQKPGQAPRLLIYLASNLESGIPDRFSGSGSGTDFTLTISRLEPEDFAVYYCQQSRELPYTFGQGTKLEIKRTVAAPSVFIFPPSDEQLKSGTASVVCLLNNFYPREAKVQWKVDNALQSGNSQESVTEQDSKDSTYSLSSTLTLSKADYEKHKVYACEVTHQGLSSPVTKSFNRGECGGGGSPLGLAGRNLPVATPDPGMFPCLHHSQNLLRAVSNMLQKARQTLEFYPCTSEEIDHEDITKDKTSTVEACLPLELTKNESSLNSRETSFITNGSCLASRKTSFMMALCLSSIYEDLKMYQVEFKTMNAKLLMDPKRQIFLDQNMLAVIDELMQALNFNSETVPQKSSLEEPDFYKTKIKLCILLHAFRIRAVTIDRVMSYLNAS
